This is an account of results in article PMC5922973, “Topoisomerase VI senses and exploits both DNA crossings and bends to facilitate strand passage” (eLife, 2018).

Holding throughout (assay): fluorescence anisotropy; Fluorescence anisotropy, 20 nM FAM-labelled DNA, topo VI 0 and 3.9-4000 nM, no nucleotide; buffer, salt, pH and temperature not given in supplied text
What all share (details): protein: recombinant, tags: N-terminal His6-TEV on Top6B, removed, chain copies: 2;2
(Fluorescence polarisation rises when a labelled molecule tumbles more slowly, as on binding a larger partner.)

One series addresses T1, topo VI H2TH-AAA (Methanosarcina mazei, UniProt Q8PUB7;Q8PUB8 1-369;1-621, R263A;K268A;K308A).
T1 sequence 1: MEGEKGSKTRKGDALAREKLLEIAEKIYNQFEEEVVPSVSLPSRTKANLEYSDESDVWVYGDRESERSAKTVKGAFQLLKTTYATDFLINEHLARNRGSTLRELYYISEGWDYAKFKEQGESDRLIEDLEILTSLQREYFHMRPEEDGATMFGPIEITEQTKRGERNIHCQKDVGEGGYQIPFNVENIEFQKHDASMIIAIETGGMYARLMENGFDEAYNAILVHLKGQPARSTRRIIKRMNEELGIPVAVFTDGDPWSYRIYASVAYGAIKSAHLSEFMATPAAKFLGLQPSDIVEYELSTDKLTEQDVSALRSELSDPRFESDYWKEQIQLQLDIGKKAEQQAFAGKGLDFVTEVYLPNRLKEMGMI
T1 sequence 2: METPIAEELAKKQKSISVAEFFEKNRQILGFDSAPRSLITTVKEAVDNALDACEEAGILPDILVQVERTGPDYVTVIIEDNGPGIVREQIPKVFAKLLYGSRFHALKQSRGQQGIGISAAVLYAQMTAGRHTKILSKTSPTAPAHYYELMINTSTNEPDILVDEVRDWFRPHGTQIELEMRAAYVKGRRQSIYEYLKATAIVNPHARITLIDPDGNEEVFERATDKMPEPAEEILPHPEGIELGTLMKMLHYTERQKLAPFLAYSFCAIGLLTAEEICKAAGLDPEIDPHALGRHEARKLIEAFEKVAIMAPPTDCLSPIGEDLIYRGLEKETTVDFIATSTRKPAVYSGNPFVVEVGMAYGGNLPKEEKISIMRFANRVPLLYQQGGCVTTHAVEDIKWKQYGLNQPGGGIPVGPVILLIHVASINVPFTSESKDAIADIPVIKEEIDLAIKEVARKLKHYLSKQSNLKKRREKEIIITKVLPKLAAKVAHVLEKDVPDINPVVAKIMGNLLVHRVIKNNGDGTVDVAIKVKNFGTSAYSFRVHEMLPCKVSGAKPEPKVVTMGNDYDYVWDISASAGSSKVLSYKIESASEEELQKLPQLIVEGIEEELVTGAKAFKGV

Another series deals with T2, topo VI holoenzyme WT (Methanosarcina mazei, UniProt Q8PUB7;Q8PUB8 1-369;1-621).
T2 sequence 1: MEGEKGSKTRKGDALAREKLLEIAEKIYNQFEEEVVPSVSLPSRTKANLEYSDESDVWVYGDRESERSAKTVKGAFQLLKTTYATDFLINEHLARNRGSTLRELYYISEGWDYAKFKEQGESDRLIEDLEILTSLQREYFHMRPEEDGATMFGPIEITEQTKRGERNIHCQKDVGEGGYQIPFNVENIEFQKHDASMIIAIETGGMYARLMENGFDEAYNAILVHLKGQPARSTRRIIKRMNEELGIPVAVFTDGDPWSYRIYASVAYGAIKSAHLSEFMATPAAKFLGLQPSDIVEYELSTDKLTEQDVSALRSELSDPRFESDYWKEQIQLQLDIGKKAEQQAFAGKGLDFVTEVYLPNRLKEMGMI
T2 sequence 2: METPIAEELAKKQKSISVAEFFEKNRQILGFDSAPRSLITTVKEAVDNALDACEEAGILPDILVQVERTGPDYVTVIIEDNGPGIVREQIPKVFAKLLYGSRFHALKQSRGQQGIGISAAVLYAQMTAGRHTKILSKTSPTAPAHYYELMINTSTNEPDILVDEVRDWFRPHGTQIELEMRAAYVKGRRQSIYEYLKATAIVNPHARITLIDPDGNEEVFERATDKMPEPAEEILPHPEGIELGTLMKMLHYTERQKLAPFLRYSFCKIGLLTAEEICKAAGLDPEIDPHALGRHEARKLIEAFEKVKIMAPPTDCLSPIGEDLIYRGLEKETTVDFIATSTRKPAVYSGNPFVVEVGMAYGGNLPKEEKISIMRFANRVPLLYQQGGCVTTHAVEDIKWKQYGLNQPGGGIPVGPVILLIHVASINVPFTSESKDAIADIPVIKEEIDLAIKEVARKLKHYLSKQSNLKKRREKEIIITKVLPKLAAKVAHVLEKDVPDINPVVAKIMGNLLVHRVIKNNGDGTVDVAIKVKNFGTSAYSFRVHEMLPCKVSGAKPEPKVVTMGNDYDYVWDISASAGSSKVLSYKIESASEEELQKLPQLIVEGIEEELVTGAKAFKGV

In a further series the target is T3, topo VI H2TH-EEE (Methanosarcina mazei, UniProt Q8PUB7;Q8PUB8 1-369;1-621, R263E;K268E;K308E).
T3 sequence 1: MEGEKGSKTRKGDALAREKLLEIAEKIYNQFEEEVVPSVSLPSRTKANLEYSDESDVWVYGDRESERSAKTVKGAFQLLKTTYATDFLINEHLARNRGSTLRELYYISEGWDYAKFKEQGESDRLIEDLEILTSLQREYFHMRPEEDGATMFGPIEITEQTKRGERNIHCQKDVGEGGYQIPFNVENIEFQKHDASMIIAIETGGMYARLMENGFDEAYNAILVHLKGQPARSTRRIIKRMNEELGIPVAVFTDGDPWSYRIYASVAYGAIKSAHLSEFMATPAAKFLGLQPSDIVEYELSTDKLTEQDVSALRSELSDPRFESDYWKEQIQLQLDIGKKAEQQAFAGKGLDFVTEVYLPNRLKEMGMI
T3 sequence 2: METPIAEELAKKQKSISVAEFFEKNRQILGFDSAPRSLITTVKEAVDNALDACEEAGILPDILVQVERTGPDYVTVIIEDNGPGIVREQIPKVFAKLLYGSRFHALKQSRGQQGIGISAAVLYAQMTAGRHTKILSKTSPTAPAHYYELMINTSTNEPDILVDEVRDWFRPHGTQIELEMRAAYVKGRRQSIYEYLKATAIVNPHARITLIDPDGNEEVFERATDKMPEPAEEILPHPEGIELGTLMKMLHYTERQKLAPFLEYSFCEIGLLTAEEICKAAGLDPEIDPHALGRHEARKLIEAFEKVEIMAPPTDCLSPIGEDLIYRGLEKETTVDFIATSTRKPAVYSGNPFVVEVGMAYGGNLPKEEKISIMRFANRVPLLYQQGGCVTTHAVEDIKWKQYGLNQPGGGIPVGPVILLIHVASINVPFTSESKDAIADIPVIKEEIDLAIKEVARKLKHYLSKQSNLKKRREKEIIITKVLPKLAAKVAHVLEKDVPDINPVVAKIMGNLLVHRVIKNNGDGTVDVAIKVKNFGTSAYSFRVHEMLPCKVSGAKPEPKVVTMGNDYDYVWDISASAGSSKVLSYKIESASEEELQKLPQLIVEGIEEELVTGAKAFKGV

The mark [1] stands for this setting: label: 5'-FAM strand 2, four-way Holliday junction, stacked-X, two GAAA-capped arms.

B1: 30 bp duplex (dsDNA)
DNA 1: CAAAAAGGAAGAGTATGAGTATTCAACATC
DNA 2: GATGTTGAATACTCATACTCTTCCTTTTTG
As usually defined, the Kd is the equilibrium constant for the complex coming apart. As for B1, the Kd was found to be 94 ± 4 nM in the series with topo VI H2TH-AAA (label: 5'-FAM strand 1, blunt) and 84 ± 6 nM in the series with topo VI holoenzyme WT (label: 5'-FAM strand 1, blunt).

B2: 40 bp duplex (dsDNA)
DNA 1: CTATTGAAAAAGGAAGAGTATGAGTATTCAACATTTCCGC
DNA 2: GCGGAAATGTTGAATACTCATACTCTTCCTTTTTCAATAG
With B2, the Kd came to 58 ± 3 nM in the series with topo VI H2TH-AAA (label: 5'-FAM strand 1, blunt) and 49 ± 3 nM in the series with topo VI holoenzyme WT (label: 5'-FAM strand 1, blunt).

B3: 70 bp duplex (dsDNA)
DNA 1: CCAAATGCTTCAATAATATTGAAAAAGGAAGAGTATGAGTATTCAACATTTCCGTGTCGCCCTTATTCCC
DNA 2: GGGAATAAGGGCGACACGGAAATGTTGAATACTCATACTCTTCCTTTTTCAATATTATTGAAGCATTTGG
Consider B3, for which the Kd in the series with topo VI H2TH-AAA (label: 5'-FAM strand 1, blunt) worked out at 180 ± 12 nM; with topo VI holoenzyme WT (label: 5'-FAM strand 1, blunt), 62 ± 4 nM. In the series with topo VI H2TH-EEE (label: 5'-FAM strand 1, blunt), the “apparent K (half saturation)” value is 103 ± 3 nM.

B4: 60 bp duplex (dsDNA)
DNA 1: CGCTTCAATAATATTGAAAAAGGAAGAGTATGAGTATTCAACATTTCCGTGTCGCCCTTC
DNA 2: GAAGGGCGACACGGAAATGTTGAATACTCATACTCTTCCTTTTTCAATATTATTGAAGCG
As for B4, the Kd with topo VI H2TH-AAA (label: 5'-FAM strand 1, blunt) turned out to be 167 ± 9 nM; with topo VI holoenzyme WT (label: 5'-FAM strand 1, blunt) it was 38 ± 2 nM. In the series with topo VI H2TH-EEE (label: 5'-FAM strand 1, blunt), the “apparent K (half saturation)” value was 109 ± 3 nM.

B5: 16 x 20 bp stacked junction (structured_DNA)
DNA 1: CGAATACTCAGCTCAACCGAAAGGTTGAGCCTTCGCTCGAAAGAGCGAAGTACTCTTCCG
DNA 2: CGGAAGAGTATGAGTATTCG
For the molecule B5, the Kd with topo VI H2TH-AAA (setting [1]) is 181 ± 8 nM; in the series with topo VI holoenzyme WT (setting [1]), 122 ± 4 nM; with topo VI H2TH-EEE (setting [1]) it was 90 ± 4 nM.

B6: 20 bp duplex (dsDNA)
DNA 1: CGGAAGAGTATGAGTATTCG
DNA 2: CGAATACTCATACTCTTCCG
In the case of B6, the Kd with topo VI H2TH-AAA (label: 5'-FAM strand 1, blunt) came out at 505 ± 22 nM; with topo VI holoenzyme WT (label: 5'-FAM strand 1, blunt), 427 ± 16 nM; with topo VI H2TH-EEE (label: 5'-FAM strand 1, blunt), 222 ± 11 nM.
